Source: PMC10907282 (Proceedings of the National Academy of Sciences of the …, 2024)

Target: purified SOS3 (Arabidopsis thaliana, UniProt O81223 1-222)
Test: other fluorescence titration

Sequence of purified SOS3 (O81223 whole entry): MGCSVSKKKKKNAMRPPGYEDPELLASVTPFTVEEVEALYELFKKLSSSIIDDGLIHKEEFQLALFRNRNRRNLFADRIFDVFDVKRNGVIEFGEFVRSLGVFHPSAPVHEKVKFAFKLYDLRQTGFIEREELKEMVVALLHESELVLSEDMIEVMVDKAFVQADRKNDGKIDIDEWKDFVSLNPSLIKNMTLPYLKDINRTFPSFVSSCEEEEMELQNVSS

KKRILEYTKYEMLNKALRAFQDLGD (peptide, UniProt Q9LKW9 460-484, looked up) [synthetic peptide spanning the S3BD of SOS1, residues K460 to D484]
binding result: binds
